Consider six molecules from patent US20110086770A1 (ANAPHORE, published 2011).

Numbering of substitutions follows the chain as printed. In names and notes the source's numbering stands.

Assay [1] has as its target recombinant human DR 4 receptor Fc fusion protein (R&D Systems) (human). As to the kind of experiment: SPR (Biacore), captured DR4/Fc.
For assay [2], the target named is T1, recombinant human IL-23R/Fc chimera (R&D Systems) (human, UniProt Q5VWK5 24-353).
T1 construct: bought; also called human IL-23R/Fc fusion protein; rhIL23RFc
T1 sequence (looked up): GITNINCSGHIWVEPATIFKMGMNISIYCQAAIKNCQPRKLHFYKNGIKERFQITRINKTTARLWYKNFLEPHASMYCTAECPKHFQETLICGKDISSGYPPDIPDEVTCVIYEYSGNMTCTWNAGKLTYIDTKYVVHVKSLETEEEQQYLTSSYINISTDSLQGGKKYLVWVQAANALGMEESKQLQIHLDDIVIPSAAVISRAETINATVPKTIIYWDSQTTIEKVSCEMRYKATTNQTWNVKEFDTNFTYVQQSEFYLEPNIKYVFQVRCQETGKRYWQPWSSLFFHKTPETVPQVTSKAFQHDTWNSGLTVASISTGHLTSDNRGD
As to the kind of experiment: competition ELISA against IL-23. The procedure:
Assays were performed generally as follows. Individual wells in Immulon HB2 plates were incubated overnight at 4° C. with 100 μL PBS containing 100 ng of an anti-human IgG Fc (R&D MAB 110 clone 97924). Plates were washed five times with PBS/0.05% Tween 20, and wells were incubated for 1.5 h at RT with 100 μL each of PBS containing 50 ng of recombinant human IL-23R/Fc. […] Competitor was included at a final concentration of 1 μg/mL. After incubation, plates were washed as described and wells were incubated for 40 min at RT with 100 μL each of PBS containing a 1:5000 dilution of streptavidin-HRP conjugate (Pierce catalog no. 21130). After washing, wells were incubated with 100 μL each of TMB (BioFX Lab catalog no. TMBH-1000-0) for up to 30 min at RT. Reactions were stopped with an equal volume of 0.2 M sulfuric acid.
A number of ATRIMER™ polypeptide complexes were tested in competition ELISA more extensively to determine IC50 values.
Background: In an ELISA, binding on a coated surface is turned into a signal by an enzyme label.

Assay [3] concerns the target T1, recombinant human IL-23R/Fc chimera …. Put plainly: SPR (Biacore), captured IL-23R/Fc, ATRIMER. The procedure: A Biacore 3000 biosensor (GE Healthcare) was used to evaluate the interaction of human IL-23R and receptor binders. Immobilization of an anti-human IgG Fc antibody (GE Heathcare) to the CM5 chip (Biacore) was performed using standard amine coupling chemistry, and this modified surface was used to capture a recombinant human IL-23R/Fc fusion protein (R&D Systems). A low-density receptor surface, less than 200 RU, was used for all of the analyses. ATRIMER™ polypeptide complex dilutions (1-500 nM) were injected over the IL-23R surface at 30 μl/min and kinetic constants were derived from the sensorgram data using the Biaevaluation software (version 3.1, GE Healthcare). Data collection was 3 minutes for the association and 5 minutes for dissociation. The anti-human IgG surface was regenerated with a 30 s pulse of 3M magnesium chloride. All sensorgrams were double-referenced against an activated and blocked flow-cell as well as buffer injections.
In general terms: In SPR one partner is held on a chip, and binding of the other changes the refractive index at the surface.

The target of assay [4] is T2, recombinant human IL-12Rβ1/Fc fusion protein (R&D Systems) (human, UniProt P42701 24-540, limits assumed).
T2 construct: bought; also called Il12Rb1
As to the kind of experiment: Biacore, IL-12Rβ1/Fc captured. The procedure:
(§1) A Biacore 3000 biosensor (GE Healthcare) was used to evaluate the interaction of human IL-12Rβ1/Fc or IL-12Rβ2/Fc with IL-23R binding ATRIMER™ complexes. Immobilization of an anti-human IgG Fc antibody (GE Healthcare) to the CM5 chip (GE Healthcare) was performed using standard amine coupling chemistry, and this modified surface was used to capture recombinant human IL-12Rβ1/Fc or IL-12Rβ2/Fc fusion protein (R&D Systems). A low-density receptor surface, less than 200 RU, was used for all of the analyses. ATRIMER™ complex dilutions (100 nM) were injected over the IL-12R surface at 30 μl/min. Data collection was 3 minutes for the association and 5 minutes for dissociation. The anti-human IgG surface was regenerated with a 30 s pulse of 3M magnesium chloride. All sensorgrams were double-referenced against an anti-human IgG Fc antibody surface as well as buffer injections.

Assay [5] concerns the target T3, recombinant human IL-12Rβ2/Fc fusion protein (R&D Systems) (human, UniProt Q99665 24-622, limits assumed).
T3 construct: bought; also called Il12Rb2
T3 sequence (looked up): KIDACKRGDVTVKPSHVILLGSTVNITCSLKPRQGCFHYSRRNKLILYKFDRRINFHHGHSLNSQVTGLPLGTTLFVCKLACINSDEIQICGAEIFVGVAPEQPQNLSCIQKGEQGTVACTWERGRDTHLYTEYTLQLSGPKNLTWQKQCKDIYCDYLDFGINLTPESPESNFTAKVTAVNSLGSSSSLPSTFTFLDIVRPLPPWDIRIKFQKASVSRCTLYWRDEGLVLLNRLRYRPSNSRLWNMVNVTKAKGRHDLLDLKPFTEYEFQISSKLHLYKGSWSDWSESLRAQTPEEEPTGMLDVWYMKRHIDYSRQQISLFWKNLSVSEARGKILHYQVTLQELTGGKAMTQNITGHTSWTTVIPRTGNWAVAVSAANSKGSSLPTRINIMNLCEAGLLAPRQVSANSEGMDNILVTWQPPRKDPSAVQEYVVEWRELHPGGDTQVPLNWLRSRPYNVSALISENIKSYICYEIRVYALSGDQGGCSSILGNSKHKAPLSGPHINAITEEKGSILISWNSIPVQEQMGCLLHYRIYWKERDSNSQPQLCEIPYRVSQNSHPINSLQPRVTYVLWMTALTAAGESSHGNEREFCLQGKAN
Put plainly: Biacore, IL-12Rβ2/Fc captured. The procedure: as §1

Assay [6] has as its target T1, recombinant human IL-23R/Fc chimera …. As to the kind of experiment: competition ELISA against IL-23. This is another data set of the same source.

Chain of recombinant human DR 4 receptor Fc fusion protein (R&D Systems) (human) (chain, as listed by the source): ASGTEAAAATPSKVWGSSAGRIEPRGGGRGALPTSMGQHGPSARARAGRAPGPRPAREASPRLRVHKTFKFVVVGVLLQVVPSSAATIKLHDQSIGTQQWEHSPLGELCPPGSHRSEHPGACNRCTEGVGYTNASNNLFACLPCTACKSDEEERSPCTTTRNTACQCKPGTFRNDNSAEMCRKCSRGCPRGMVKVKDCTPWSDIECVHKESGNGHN

B1: 014-42.3D11 ATRIMER (designed binder)
chain: EPPTQKPKKIVNAKKDVVNTKMFEELKSRLDTLAQEVALLKEQQALQTVCLKGTKVHMKCFLAFTQTKTFHEASEDCISRGGTLSTPQTGSENDALYEYLRQSVGNEAEIWLGLNGWLEGAGWVDMTGARIAYKNWETEITAQPDGGWHWRWENCAVLSGAANGKWFDKRCRDQLPYICQFGIV
modifications: Homotrimer (ATRIMER) of this chain; one protomer is given.
notes: not shown: C-terminal tag (His/Myc of pANA4, HA-StrepII of pANA10, or that of pANA19)
A word on the Kd: it is the free concentration of one partner at which half of the binding sites on the other are occupied at equilibrium, for simple one-to-one binding. For orientation: koff means the first-order rate constant of dissociation. Usually kon stands for the second-order rate constant of association. As for B1, in assay [1], the Ka was 2.53e+07 M⁻¹, the dissociation constant (Kd) was found to be 39.5 nM, the koff worked out at 0.000526 s⁻¹ and the kon came to 13300 M⁻¹ s⁻¹.

B2: A9E ATRIMER (designed binder)
chain: EPPTQKPKKIVNAKKDVVNTKMFEELKSRLDTLAQEVALLKEQQALQTVCLKGTKVHMKCFLAFTQTKTFHEASEDCISRGGTLSTPQTGSENDALYEYLRQSVGNEAEIWLGLNGSALTNTWVDMTGARIAYKNWETEITAQPDGGLGYWGENCAVLSGAANGKWFDKRCRDQLPYICQFGIV
What is called IC50 is the midpoint of a concentration-inhibition curve. Turning to B2, the concentration for half-maximal inhibition (IC50) in assay [2] came out at 2.6 nM. In addition, in assay [3], the Ka was 5.21e+08 M⁻¹, the Kd was determined as 1.92 nM, the koff is 0.00033 s⁻¹ and the on-rate constant (kon) was 172000 M⁻¹ s⁻¹.

B3: 101-113-6C108 ATRIMER (designed binder)
chain: B2 chain with T138P, E139P, I140P, T141P, A142H, Q143H, D145M, L148F, Y150V, W151F
Regarding B3, the binding result in assay [4] is on record as “no binding (tested: 100 nM)”. In addition, the binding result in assay [5] is on record as “no binding (tested: 100 nM)”. Also, the “Ratio IC50 to 056-53.H4E IC50” value in assay [6] was determined as 0.9 ratio. For the same molecule, in assay [3], the Ka was found to be 1.63e+09 M⁻¹, the Kd was determined as 0.613 nM, the koff was determined as 0.000382 s⁻¹ and the kon was determined as 623000 M⁻¹ s⁻¹.

B4: 101-51-1A4 ATRIMER (designed binder)
chain: B2 chain with T138R, E139P, I140A, T141L, A142V, D145R, L148F, Y150V, W151F
notes: also called ATRIMER complex 1A4
B4: the binding result in assay [4] is “no binding (tested: 100 nM)”. The binding result in assay [5] is on record as “no binding (tested: 100 nM)”. The “Ratio IC50 to 056-53.H4E IC50” value in assay [6] came to 1 ratio. Moreover, in assay [3], the Ka was determined as 2.58e+09 M⁻¹, the Kd came out at 0.388 nM, the koff worked out at 0.000395 s⁻¹ and the kon is 1.02e+06 M⁻¹ s⁻¹.

B5: 101-51-1A7 ATRIMER (designed binder)
chain: B2 chain with T138R, E139P, I140P, T141L, A142Y, D145G, L148W, Y150V, W151F
With B5, in assay [4], the binding result was “no binding (tested: 100 nM)”. Besides, in assay [5], the binding result is “no binding (tested: 100 nM)”. The “Ratio IC50 to 056-53.H4E IC50” value in assay [6] was 1 ratio. In addition, in assay [3], the Ka was found to be 2.24e+09 M⁻¹, the Kd turned out to be 0.447 nM, the koff came out at 0.000187 s⁻¹ and the kon worked out at 419000 M⁻¹ s⁻¹.

B6: 4G8 ATRIMER (designed binder)
chain: B2 chain with A118R, L119R, T120S, N121G, T122V, L148F, Y150V, W151F
modifications: Forms a homotrimer through the tetranectin coiled coil; one protomer is given.
notes: made in E. coli; also called 001-69.4G8; ATRIMER complex 4G8
On to B6, for which, in assay [2], the IC50 turned out to be 1.4 nM. Also, in assay [3], the Ka was determined as 1.35e+08 M⁻¹, the dissociation constant (Kd) stood at 7.42 nM, the koff worked out at 0.000805 s⁻¹ and the kon amounted to 109000 M⁻¹ s⁻¹.
